Data from publication PMC9065173.

Target: CXC-chemokine receptor 4 (CXCR4) (human (endogenous in MOLM13 and CEM)) (UniProt P61073)
Sequence of UniProt P61073 (P61073 whole entry): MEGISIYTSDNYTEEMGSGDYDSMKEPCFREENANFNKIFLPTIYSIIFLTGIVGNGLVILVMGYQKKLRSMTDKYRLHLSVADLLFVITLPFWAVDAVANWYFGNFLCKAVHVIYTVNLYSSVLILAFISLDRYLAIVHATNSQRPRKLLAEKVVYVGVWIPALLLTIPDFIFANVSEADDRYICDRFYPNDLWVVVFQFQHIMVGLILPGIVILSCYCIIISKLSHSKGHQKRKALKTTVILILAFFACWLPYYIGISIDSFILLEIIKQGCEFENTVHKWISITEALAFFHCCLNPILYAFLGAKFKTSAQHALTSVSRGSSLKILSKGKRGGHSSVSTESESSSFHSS

apoptosis of MOLM13 cells after 4 days with T140-KLA-EVs (annexin V / PI staining, flow cytometry); no difference between T140-KLA-EVs and KLA-EVs in CXCR4-negative AsPC-1 cells: > 50%
Substance: bifunctional T140-KLA peptide, ligated onto the RBCEV surface (T140-KLA-EVs)
